From patent US20090291083A1, “BARB4 TARGET, ANTIBODY DESIGNATED BARB4, BARB4 RELATED ANTIBODIES, AND METHODS OF MAKING AND USING SAME” (PATRYS LIMITED, priority 2008, published 2009)

Tests used:
Format in all cases: binding, human
[1] = system: Malignant Tissues: Esophagus; assay: Immunohistochemistry (IHC) with biotinylated BARB4 on malignant tissue; details: positive/negative
Procedure: (§1) Immunohistochemistry with human IgG on human tissue naturally results in high background staining. Accordingly, BARB4 was labeled with biotin to reduce background.
(§2) BARB4 antibody and an unrelated commercial IgG control (Chrompure IgG, Dianova) where labelled with “EZ-Link Maleimide-PEO Solid Phase Biotinylation Kit” from Pierce (Cat-# 21930) and Immunohistochemistry was initiated on different tumor tissue. Parrafin embedded tissue was first deparaffinized by treatment with Xylene 1 for 5 min, Xylene 2 for 5 min, followed by 100% Ethanol 1 for 5 min, 100% Ethanol 2 for 5 min, 70 ml Methanol+500 μl H2O2 for 7 min, 90% Ethanol 1 for 3 min, 90% Ethanol 2 for 3 min, 80% Ethanol 1 for 3 min, 80% Ethanol 2 for 3 min, 70% Ethanol 1 for 3 min, 70% Ethanol 2 for 3 min, and then washed three times with distilled H2O. (1 and 2 mean that the tissues were treated 2 times with the same alcohol, one after the another, in two different tanks.) Tissue was then heated in Citric acid, pH 5,5 in a water-bath at 99.9° C. for 20 min, placed in Tris/NaCl (Tris, 0.6 g/l and NaCl 8.1 g/l, pH 7.4) for 5 min, block with 0.5% BSA in PBS for 60 min, and then washed three times with Tris/NaCl (Tris, 0.6 g/l and NaCl 8.1 g/l, pH 7.4). Primary antibody (150 μl per microscope slide) was added, or a negative control biotinylated isotype matched control human antibody (Chrompure IgG, Dianova, Germany) or a positive controlanti-cytokeratin antibody, and incubated for 30 min in a humidified chamber at 37° C. Tissue was washed three times with Tris/NaCl (Tris, 0.6 g/l and NaCl 8.1 g/l, pH 7.4). Secondary antibody: (150 […]) was subsequently added and incubated for 30 min in a humidified chamber at room temperature (for biotinylated antibodies: NeurtrAvidin 1:100 in PBS), washed three times with Tris/NaCl (Tris, 0.6 g/l and NaCl 8.1 g/l, pH7.4), placed in PBS for 10 min. Tiusse was subsequently incubated with diaminobenzidine (0.05%)-hydrogen peroxide (0.02%) (150 μl per microscope slide) (Sigma, Taufkirchen, München, Germany) for 10 min, washed three times with H2O, washed once with distilled H2O, incubated with hematoxylin/eosin for 5 min, and placed under running tap water 10-15 min. Tissue was then washed again with distilled H2O, and the slides covered with Aquatex (Merck Bioscience).

[2] = system: Malignant Tissues: Lung; assay: as above; details: positive/negative
Procedure: as §1, §2

[3] = system: Malignant Tissues: Melanoma; assay: as above; details: Metastases of malignant melanoma, positive/negative
Procedure: as §1, §2

[4] = system: Malignant Tissues: Pancreas; assay: as above; details: positive/negative
Procedure: as §1, §2

[5] = system: membrane preparations of tumor cell line BXPC-3; assay: Western blot on membrane preparations; details: BXPC-3 membrane preparation; FIG. 6A
Procedure: For BARB4 target assays the established, human pancreatic adenocarcinoma cell line BXPC-3 was used. The adherent cells were grown to a confluence of about 90% in RPMI 1640 culture medium (PAA, Vienna) supplemented with 10% (V/V) FCS, 1% (V/V) glutamine and 1% (V/V) streptomycin/penicillin at 37° C. and a 7% CO2 atmosphere (HERA cell incubator, Heraeus, Hanau). Sterile tissue culture dishes 145/20 (greiner bio-one, Frickenhausen) were prepared with 1 ml cell suspension containing 2−3×10^6 cells/ml (suspension medium is equivalent to culture medium described above) and 50 ml supplemented RPMI 1640 medium. After three or four days the carcinoma cells could be harvested for membrane extract preparation. For this purpose, BXPC-3 cells were washed with phosphate-buffered saline (PBS; containing 0.137 M NaCl, 0.027 M KCl, 0.065 M Na2HPO4×2H2O, 0.015 M KH2PO4) and the adherent cells were scraped off the tissue culture dishes. The cell suspension was centrifuged (1500×g for 5 minutes at room temperature). The supernatant was removed and the pellet was washed again with PBS followed by a further centrifugation step (1500×g, 5 minutes at room temperature). Afterwards the supernatant was removed again. A single cell pellet includes carcinoma cells from 10 tissue culture dishes. It was immediately used for membrane extract preparation or stored at −20° C. […]

B1: BARB4: human IgG antibody produced by hybridoma DSMZ Deposit No. DSM ACC2876; heavy chain SEQ ID NOs:1, 3, 5, 7, light chain SEQ ID NO:9 (antibody, V domains shown)
VH: QVQLVESGGGVVQPGRSLRLSCAASGFRFTTHGMHWVRQAPGKGLEWVAVISYNGRNKYYADYVNGRFTISRDDSRDTVFLQMNSLRPEDTAMYYCAKVRGDGYGDYGYFDYWGHGTLVSVSS
VL: QSALTQPRSVSGSPGQSVTISCTGTYNYVSWYQQHPGKAPKLMIFDVSRRSSGVPDRFSGSKSGNTASLTISGLQAEDEADYYCCSYGGTYLYVFGTGTTVTVLGQ
[1]; Adeno (Barrett Carcinoma)
  Barb 4 +/−: 1/0
[1]; Squamous cell
  Barb 4 +/−: 1/0
[2]; Carcinoid (neuron-endocrine)
  Barb 4 +/−: 1/0
[2]; Lymph Node Metastasis
  Barb 4 +/−: 1/0
[2]; Squamous cell
  Barb 4 +/−: 2/0
[3]
  Barb 4 +/−: 5/0
[4]; Adeno
  Barb 4 +/−: 0/1
[4]; Lymph Node Metastasis
  Barb 4 +/−: 4/0
[5]
  binding on Western blots with membrane preparations: binds to a membrane molecule with a relative molecular mass between 70 and 85 kD
